Paper PMC6392469 (Cellular signalling, 2018)
Non-standard residues stand in square brackets, D forms with d. No end group written: not given here. fluorescein = fluorescein-6-aminohexanoyl label; pY = N[C@@H](Cc1ccc(OP(=O)(O)O)cc1)C(=O)O; Ahx = NCCCCCC(=O)O

T1: C1-Ten SH2 domain (C1-Ten/Tensin2) (Homo sapiens, UniProt Q63HR2, K1142Q/K1155Q/K1157Q)
T1 sequence (Q63HR2 1120-1253 K1142Q/K1155Q/K1157Q): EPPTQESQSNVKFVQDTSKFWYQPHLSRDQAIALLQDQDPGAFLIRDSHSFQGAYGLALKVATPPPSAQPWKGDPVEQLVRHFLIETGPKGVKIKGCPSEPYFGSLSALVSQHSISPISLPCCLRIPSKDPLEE

T2: C1-Ten SH2 domain (C1-Ten/Tensin2) (Homo sapiens, UniProt Q63HR2)
T2 sequence (Q63HR2 1120-1253): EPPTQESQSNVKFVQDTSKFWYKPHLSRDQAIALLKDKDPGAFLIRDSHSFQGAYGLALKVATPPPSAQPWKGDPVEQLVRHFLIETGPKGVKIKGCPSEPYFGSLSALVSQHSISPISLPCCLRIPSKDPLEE

T3: C1-Ten/Tensin2 SH2 domain, wild type (UniProt Q63HR2 1120-1253)
T3 sequence (looked up): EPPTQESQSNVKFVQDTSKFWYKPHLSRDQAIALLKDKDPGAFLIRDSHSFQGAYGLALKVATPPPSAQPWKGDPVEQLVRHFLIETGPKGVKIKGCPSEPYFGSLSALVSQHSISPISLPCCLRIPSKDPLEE

T4: C1-Ten/Tensin2 SH2 domain K1142Q/K1155Q/K1157Q (UniProt Q63HR2 1120-1253, K1142Q | K1155Q | K1157Q)
T4 sequence (looked up): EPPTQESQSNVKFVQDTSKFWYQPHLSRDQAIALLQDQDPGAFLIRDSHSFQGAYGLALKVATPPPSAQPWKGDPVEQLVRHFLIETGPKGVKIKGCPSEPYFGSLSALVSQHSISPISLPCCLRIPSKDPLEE

T5: C1-Ten/Tensin2 SH2 domain R1165A (UniProt Q63HR2 1120-1253, R1165A)
T5 sequence (looked up): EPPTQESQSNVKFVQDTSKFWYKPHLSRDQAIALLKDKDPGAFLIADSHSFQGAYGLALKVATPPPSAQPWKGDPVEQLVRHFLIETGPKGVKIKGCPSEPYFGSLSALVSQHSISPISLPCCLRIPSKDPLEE


Assays:
[1] = target: T1, C1-Ten SH2 domain (C1-Ten/Tensin2); assay: equilibrium SPR, L1 chip with lipid vesicles; format: binding
[2] = target: T2, C1-Ten SH2 domain (C1-Ten/Tensin2); assay: equilibrium SPR, L1 chip with lipid vesicles; format: binding
[3] = target: T3, C1-Ten/Tensin2 SH2 domain, wild type; assay: fluorescence polarisation
[4] = target: T4, C1-Ten/Tensin2 SH2 domain …; assay: fluorescence polarisation
[5] = target: T5, C1-Ten/Tensin2 SH2 domain R1165A; assay: fluorescence polarisation

| Molecule | Kd [1] [nM] | Kd [2] [nM] | Kd [3] [nM] | Kd [4] [µM] | Kd [5] [µM] |
| --- | --- | --- | --- | --- | --- |
| CCCCCCCCCCCCCCCC(=O)OC[C@H](COP(=O)(O)O[C@H]1[C@H](O)[C@@H](OP(=O)(O)O)[C@H](OP(=O)(O)O)[C@@H](OP(=O)(O)O)[C@H]1O)OC(=O)CCCCCCCCCCCCCCC [PtdIns(3,4,5)P3] | 1260 ± 128 | 260 ± 40 |  |  |  |
| {fluorescein-Ahx}-NE[pY]DNV [F-Ahx-NEpYDNV, fluorescein-6-aminohexanoyl-labeled pY-containing peptide] |  |  | 2500 ± 1300 | 3.6 ± 1.4 | 90.9 ± 11.4 |
